Residue numbers refer to the chain shown, from its start. Names and notes keep the numbering of the source. Like-named read-outs stand apart in the source and are kept apart here.
B1: human phosphofructokinase-1, platelet isoform (PFKP), recombinant wild type (enzyme, UniProt Q01813-1 1-784, looked up)
chain: MDADDSRAPKGSLRKFLEHLSGAGKAIGVLTSGGDAQGMNAAVRAVVRMGIYVGAKVYFIYEGYQGMVDGGSNIAEADWESVSSILQVGGTIIGSARCQAFRTREGRLKAACNLLQRGITNLCVIGGDGSLTGANLFRKEWSGLLEELARNGQIDKEAVQKYAYLNVVGMVGSIDNDFCGTDMTIGTDSALHRIIEVVDAIMTTAQSHQRTFVLEVMGRHCGYLALVSALACGADWVFLPESPPEEGWEEQMCVKLSENRARKKRLNIIIVAEGAIDTQNKPITSEKIKELVVTQLGYDTRVTILGHVQRGGTPSAFDRILASRMGVEAVIALLEATPDTPACVVSLNGNHAVRLPLMECVQMTQDVQKAMDERRFQDAVRLRGRSFAGNLNTYKRLAIKLPDDQIPKTNCNVAVINVGAPAAGMNAAVRSAVRVGIADGHRMLAIYDGFDGFAKGQIKEIGWTDVGGWTGQGGSILGTKRVLPGKYLEEIATQMRTHSINALLIIGGFEAYLGLLELSAAREKHEEFCVPMVMVPATVSNNVPGSDFSIGADTALNTITDTCDRIKQSASGTKRRVFIIETMGGYCGYLANMGGLAAGADAAYIFEEPFDIRDLQSNVEHLTEKMKTTIQRGLVLRNESCSENYTTDFIYQLYSEEGKGVFDCRKNVLGHMQQGGAPSPFDRNFGTKISARAMEWITAKLKEARGRGKKFTTDDSICVLGISKRNVIFQPVAELKKQTDFEHRIPKEQWWLKLRPLMKILAKYKASYDVSDSGQLEHVQPWSV
B2: PFKP-F649L (enzyme, human, UniProt Q01813-1 1-784, looked up)
chain: B1 chain with F649L

Experiments:
Assay in all cases: transmission electron microscopy
[1] = target: the molecule itself
[2] = target: the molecule itself; remark: listed apart in the source
[3] = target: the molecule itself; remark: listed apart in the source

Row | Protein | stoichiometry N [1] | stoichiometry N [2] | stoichiometry N [3]
1 | B1 | 4 | 2 | –
2 | B2 | – | – | 2
